Measured values taken from patent publication US20260250418A1 (BIOCYTOGEN PHARMACEUTICALS BEIJING, published 2026).

Legend:
[1] = molecular target: T1, monkey (Macaca fascicularis) HER3 on CHO-fasHER3 cells (monkey (Macaca fascicularis), UniProt P21860 20-643 (human entry)); experiment: flow cytometry, transfected CHO cells
T1 construct: CHO-S cells transfected with fasHER3
T1 chain: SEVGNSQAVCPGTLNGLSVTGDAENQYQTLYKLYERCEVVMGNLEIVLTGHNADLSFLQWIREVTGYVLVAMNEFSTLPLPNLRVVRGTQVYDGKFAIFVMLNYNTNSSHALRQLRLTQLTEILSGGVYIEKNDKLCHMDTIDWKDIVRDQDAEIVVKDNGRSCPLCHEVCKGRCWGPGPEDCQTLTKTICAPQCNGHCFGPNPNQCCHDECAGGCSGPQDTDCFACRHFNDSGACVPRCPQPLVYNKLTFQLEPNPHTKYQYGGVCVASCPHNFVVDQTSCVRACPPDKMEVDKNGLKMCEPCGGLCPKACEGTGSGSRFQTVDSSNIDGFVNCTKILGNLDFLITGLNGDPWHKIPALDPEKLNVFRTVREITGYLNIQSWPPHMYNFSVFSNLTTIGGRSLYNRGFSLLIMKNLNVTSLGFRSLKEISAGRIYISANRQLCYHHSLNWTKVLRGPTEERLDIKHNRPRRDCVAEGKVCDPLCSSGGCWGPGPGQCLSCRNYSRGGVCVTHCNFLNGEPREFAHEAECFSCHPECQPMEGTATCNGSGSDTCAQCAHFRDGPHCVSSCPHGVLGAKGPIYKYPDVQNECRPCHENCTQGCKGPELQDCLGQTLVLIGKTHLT
Method: (§1) CHO-hHER3 cells, CHO-mHER3 cells, CHO-fasHER3 cells or CHO-dHER3 cells were transferred to a 96-well plate at a density of 5×10⁴ cells/well respectively. The anti-HER3 antibodies were added to the 96-well plate, and incubated at 4° C. for 30 min.

[2] = molecular target: T2, dog HER3 on CHO-dHER3 cells (dog, UniProt P21860 20-1342 (human entry)); experiment: flow cytometry, transfected CHO cells
T2 construct: CHO-S cells transfected with dHER3
T2 chain: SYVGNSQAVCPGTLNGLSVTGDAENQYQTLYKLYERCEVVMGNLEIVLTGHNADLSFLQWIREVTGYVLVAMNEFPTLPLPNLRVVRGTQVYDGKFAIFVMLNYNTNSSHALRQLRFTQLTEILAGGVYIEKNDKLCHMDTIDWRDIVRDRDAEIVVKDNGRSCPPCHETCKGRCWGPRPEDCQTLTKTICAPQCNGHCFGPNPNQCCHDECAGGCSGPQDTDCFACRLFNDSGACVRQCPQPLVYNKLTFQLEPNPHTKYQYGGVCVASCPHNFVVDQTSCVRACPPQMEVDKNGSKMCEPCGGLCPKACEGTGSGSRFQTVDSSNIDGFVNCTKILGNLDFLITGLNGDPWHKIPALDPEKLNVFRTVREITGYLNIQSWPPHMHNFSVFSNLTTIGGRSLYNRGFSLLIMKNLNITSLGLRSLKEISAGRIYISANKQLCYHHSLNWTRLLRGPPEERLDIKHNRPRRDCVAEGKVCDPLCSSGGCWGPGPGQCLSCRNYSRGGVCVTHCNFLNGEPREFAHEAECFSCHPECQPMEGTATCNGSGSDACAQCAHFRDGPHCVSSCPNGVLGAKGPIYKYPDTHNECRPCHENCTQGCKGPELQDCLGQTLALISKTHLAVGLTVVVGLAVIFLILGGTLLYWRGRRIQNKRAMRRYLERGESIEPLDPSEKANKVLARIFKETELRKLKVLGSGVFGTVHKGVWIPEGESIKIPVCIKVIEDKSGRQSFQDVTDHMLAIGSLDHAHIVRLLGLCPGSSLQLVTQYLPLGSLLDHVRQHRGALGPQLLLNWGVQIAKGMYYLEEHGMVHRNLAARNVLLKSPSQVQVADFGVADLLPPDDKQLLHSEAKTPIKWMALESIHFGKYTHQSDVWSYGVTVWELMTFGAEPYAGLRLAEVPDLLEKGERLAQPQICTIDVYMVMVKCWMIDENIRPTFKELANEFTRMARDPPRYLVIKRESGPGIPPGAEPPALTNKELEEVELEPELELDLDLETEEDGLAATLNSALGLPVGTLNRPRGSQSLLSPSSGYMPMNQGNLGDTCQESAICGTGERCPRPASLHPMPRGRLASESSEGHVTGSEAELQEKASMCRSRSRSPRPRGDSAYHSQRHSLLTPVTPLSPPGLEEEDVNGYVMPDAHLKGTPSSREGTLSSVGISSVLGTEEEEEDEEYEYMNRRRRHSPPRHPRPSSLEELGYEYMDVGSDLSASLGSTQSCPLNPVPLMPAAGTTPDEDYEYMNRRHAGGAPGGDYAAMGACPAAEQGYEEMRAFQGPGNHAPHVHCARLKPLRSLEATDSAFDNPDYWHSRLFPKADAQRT
Method: as §1

[3] = molecular target: T3, human HER3 on CHO-hHER3 cells (human, UniProt P21860 20-643); experiment: flow cytometry, transfected CHO cells
T3 construct: CHO-S cells transfected with hHER3
Method: as §1

[4] = molecular target: T4, mouse HER3 on CHO-mHER3 cells (mouse, UniProt Q61526 20-641); experiment: flow cytometry, transfected CHO cells
T4 construct: CHO-S cells transfected with mHER3
T4 sequence (Q61526 20-641): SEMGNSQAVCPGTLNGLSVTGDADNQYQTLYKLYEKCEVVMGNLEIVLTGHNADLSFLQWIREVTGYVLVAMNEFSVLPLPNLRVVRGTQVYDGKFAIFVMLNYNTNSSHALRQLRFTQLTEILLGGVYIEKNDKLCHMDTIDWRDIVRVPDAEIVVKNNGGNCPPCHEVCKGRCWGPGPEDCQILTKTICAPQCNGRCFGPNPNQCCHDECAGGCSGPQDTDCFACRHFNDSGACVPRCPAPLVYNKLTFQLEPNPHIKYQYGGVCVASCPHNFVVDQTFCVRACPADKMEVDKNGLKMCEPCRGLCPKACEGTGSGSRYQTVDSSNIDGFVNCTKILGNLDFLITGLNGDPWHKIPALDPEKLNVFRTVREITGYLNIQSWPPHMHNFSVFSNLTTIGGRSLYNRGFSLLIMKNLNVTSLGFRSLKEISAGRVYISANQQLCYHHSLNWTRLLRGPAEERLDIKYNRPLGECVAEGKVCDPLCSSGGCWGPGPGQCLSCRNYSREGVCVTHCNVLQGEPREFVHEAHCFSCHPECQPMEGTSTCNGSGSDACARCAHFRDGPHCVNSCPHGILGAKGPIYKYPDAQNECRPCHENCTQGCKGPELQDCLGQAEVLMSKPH
Method: as §1

[5] = molecular target: T5, His-tagged human HER3 protein (hHER3, ACRO Biosystems Inc., Cat #: ER3-H5223) (human, UniProt P21860 20-643); experiment: SPR, Ab captured on Protein A
T5 construct: Bought protein; also called hHER3-His; not shown: His tag
Method: (§2) Purified anti-HER3 antibodies was captured on the Protein A chip (Series S Sensor Chip Protein A) for the detection. […] For ISO control, an antibody targeting an irrelevant target protein was used. The flow rate was 30 μL/min, the binding and dissociation time were set to 180 s and 400 s, respectively. The chip was regenerated after the last injection of each titration with a glycine solution (pH 2.0) at 30 μL/min for 30 seconds.
(§3) As a person of ordinary skill in the art would understand, the same method with appropriate adjustments for parameters (e.g., antibody concentration) was performed for each tested antibody.

[6] = molecular target: T6, His-tagged dog HER3 protein (dHER3, SEQ ID NO: 45) (dog, UniProt P21860 20-642 (human entry)); experiment: SPR, Ab captured on Protein A
T6 construct: not shown: His tag
T6 chain: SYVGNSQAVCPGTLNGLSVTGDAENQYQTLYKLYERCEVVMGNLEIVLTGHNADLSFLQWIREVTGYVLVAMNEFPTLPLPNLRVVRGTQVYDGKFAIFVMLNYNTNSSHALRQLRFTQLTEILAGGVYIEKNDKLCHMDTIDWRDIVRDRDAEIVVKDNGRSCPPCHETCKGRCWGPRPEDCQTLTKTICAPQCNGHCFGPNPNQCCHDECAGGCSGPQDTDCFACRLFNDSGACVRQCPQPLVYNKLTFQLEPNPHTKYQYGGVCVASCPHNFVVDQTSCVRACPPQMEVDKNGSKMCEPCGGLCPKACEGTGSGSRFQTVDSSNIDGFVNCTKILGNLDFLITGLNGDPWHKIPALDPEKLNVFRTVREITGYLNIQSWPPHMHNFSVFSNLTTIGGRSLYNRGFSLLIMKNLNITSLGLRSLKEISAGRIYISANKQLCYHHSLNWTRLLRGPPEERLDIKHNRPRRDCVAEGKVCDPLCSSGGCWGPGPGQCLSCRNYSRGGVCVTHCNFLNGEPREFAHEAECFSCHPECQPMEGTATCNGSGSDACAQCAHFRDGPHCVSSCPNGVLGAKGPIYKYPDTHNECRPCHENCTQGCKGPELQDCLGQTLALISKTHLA
Method: as §2, §3

[7] = molecular target: T7, His-tagged monkey HER3 protein (fasHER3, Sino Biological, Inc., Cat #: 90043-K08H) (monkey); experiment: SPR, Ab captured on Protein A
T7 construct: Bought protein
Method: as §2, §3

[8] = molecular target: T1, monkey (Macaca fascicularis) HER3 on …; experiment: flow cytometry, transfected CHO cells
Method: (§4) Specifically, CHO-hHER3 cells, CHO-fasHER3 cells, NIH3T3-hMET cells or NIH3T3-fasMET cells were transferred to a 96-well plate at a density of 5×10⁴ cells/well respectively. The antibodies were added to the 96-well plate, and incubated at 4° C. for 30 min.

[9] = molecular target: T3, human HER3 on CHO-hHER3 cells; experiment: flow cytometry, transfected CHO cells; remark: listed apart in the source
Method: as §4

[10] = molecular target: T5, His-tagged human HER3 protein (hHER3, …); experiment: SPR, Ab captured on Protein A, antigen 400 nM
Method: (§5) Purified antibodies were captured on the Protein A chip (Series S Sensor Chip Protein A) for the detection. 2 μg/mL antibodies were loaded at 10 μL/min to bind to hHER3, fasHER3, hMET or fasMET (400 and 0 nM). The flow rate was 30 μL/min, the binding and dissociation time were set to 180 s and 400 s, respectively. The chip was regenerated after the last injection of each titration with a glycine solution ([…]) at 30 μL/min for 30 seconds.

[11] = molecular target: T8, His-tagged human MET (hMET, Sino Biological, Inc., Cat #: 10692-H08H) (human, UniProt P08581 25-932); experiment: SPR, Ab captured on Protein A, antigen 400 nM
T8 construct: Bought protein; not shown: His tag
T8 sequence (P08581 25-932 limits assumed): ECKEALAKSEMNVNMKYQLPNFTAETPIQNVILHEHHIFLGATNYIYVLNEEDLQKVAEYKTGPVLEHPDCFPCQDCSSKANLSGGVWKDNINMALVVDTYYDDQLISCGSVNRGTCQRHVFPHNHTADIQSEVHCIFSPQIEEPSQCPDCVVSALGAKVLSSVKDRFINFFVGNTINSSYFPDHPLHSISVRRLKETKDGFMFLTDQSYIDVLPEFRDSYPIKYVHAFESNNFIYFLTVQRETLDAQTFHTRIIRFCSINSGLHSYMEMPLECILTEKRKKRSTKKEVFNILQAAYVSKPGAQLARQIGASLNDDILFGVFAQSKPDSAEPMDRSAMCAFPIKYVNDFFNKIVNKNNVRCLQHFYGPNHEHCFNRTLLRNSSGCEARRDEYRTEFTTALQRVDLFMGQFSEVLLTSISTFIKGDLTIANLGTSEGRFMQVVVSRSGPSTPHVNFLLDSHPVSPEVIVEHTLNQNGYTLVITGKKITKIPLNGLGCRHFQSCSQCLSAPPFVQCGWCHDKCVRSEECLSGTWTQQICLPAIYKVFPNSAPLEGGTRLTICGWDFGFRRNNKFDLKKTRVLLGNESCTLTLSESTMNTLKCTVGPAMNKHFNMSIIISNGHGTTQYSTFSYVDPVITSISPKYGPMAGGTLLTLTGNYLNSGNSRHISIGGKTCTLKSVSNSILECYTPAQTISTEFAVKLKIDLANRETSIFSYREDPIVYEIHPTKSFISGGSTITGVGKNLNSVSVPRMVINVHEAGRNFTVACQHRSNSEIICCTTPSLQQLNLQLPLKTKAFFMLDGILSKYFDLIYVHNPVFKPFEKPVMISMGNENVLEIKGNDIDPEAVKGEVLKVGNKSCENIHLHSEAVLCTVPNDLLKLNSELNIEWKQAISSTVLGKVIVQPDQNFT
Method: as §5

[12] = molecular target: T7, His-tagged monkey HER3 protein …; experiment: SPR, Ab captured on Protein A, antigen 400 nM
Method: as §5

[13] = molecular target: T9, human MET on NIH3T3-hMET cells (human, UniProt P08581 25-1390); experiment: flow cytometry, transfected NIH3T3 cells
T9 construct: NIH3T3 cells transfected with a plasmid expressing hMET
T9 sequence (P08581 25-1390 limits assumed): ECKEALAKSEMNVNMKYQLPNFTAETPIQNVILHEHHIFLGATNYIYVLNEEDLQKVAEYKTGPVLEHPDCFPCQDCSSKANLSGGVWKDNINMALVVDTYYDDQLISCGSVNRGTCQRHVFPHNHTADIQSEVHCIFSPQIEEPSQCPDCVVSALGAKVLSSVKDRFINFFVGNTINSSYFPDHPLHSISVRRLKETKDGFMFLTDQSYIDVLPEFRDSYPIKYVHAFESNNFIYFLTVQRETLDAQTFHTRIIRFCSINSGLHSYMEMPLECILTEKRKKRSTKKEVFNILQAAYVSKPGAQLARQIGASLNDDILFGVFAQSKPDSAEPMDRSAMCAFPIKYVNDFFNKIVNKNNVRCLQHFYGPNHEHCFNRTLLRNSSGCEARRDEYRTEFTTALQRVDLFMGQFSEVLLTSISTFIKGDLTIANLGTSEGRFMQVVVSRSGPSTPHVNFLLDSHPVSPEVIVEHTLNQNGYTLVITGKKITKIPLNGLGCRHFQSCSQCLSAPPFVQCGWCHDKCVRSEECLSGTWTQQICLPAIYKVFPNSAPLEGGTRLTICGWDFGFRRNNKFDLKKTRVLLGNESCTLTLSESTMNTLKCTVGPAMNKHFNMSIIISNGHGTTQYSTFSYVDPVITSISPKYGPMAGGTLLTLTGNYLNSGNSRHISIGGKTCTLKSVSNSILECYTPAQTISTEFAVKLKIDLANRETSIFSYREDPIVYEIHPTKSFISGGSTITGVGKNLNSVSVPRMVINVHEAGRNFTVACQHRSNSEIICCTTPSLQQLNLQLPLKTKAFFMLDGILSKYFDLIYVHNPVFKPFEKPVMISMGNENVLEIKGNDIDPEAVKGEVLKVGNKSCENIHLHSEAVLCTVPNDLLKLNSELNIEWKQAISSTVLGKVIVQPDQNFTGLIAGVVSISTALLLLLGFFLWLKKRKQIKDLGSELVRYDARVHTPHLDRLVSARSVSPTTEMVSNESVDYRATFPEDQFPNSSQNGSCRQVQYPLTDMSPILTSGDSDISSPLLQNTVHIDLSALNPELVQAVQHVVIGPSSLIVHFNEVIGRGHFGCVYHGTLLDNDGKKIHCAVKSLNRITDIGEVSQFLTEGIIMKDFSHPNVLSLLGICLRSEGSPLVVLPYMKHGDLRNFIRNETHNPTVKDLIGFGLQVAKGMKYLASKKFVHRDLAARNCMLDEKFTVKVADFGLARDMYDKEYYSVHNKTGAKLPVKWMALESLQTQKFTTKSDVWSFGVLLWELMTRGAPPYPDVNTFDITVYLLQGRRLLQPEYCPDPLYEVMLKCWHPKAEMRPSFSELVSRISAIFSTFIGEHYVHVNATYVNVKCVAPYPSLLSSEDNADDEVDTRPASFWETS
Method: as §4

[14] = molecular target: T10, monkey MET on NIH3T3-fasMET cells (monkey, UniProt A0M8R7 25-1381); experiment: flow cytometry, transfected NIH3T3 cells
T10 construct: NIH3T3 cells transfected with a plasmid expressing fasMET
T10 sequence (A0M8R7 25-1381 S170N/I621T limits assumed): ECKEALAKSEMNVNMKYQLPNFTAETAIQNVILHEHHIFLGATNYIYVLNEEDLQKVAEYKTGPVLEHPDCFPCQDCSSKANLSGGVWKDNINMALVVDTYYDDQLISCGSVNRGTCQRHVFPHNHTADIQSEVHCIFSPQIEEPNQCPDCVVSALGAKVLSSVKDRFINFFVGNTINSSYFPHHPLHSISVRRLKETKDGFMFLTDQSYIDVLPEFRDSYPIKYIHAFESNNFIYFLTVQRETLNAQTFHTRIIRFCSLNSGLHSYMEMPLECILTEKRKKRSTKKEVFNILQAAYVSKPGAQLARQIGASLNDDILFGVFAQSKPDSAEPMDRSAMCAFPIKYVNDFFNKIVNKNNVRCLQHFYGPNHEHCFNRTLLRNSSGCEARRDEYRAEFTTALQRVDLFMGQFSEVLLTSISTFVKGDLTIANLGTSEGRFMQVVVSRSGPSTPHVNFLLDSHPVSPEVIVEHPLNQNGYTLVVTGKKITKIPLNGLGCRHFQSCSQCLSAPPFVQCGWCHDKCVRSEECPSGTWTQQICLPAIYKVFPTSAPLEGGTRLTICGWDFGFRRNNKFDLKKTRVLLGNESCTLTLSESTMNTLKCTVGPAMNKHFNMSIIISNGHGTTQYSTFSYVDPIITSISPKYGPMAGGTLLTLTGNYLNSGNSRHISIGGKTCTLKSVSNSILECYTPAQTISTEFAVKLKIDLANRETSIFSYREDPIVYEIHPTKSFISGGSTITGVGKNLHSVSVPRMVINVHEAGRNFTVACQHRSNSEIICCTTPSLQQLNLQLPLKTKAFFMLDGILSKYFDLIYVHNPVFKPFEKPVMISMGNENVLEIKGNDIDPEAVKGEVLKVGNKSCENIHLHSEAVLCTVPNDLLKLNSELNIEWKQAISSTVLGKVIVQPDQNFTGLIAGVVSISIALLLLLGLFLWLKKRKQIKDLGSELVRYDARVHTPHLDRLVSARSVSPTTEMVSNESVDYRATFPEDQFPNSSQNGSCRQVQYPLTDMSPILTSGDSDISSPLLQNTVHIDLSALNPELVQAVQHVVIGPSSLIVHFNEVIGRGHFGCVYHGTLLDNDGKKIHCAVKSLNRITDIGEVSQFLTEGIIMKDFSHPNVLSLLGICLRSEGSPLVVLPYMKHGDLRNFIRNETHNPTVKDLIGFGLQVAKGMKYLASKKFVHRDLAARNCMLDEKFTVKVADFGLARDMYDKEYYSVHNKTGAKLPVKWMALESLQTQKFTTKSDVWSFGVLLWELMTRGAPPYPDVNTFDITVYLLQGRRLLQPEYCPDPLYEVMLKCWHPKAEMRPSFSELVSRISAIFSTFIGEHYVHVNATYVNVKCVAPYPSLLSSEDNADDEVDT
Method: as §4

Binder | Positive Cells [8] [%] | Positive Cells [9] [%] | Kd [10] [nM] | koff [10] [s⁻¹] | kon [10] [M⁻¹ s⁻¹] | Kd [11] [nM] | koff [11] [s⁻¹] | kon [11] [M⁻¹ s⁻¹] | Kd [12] [nM] | koff [12] [s⁻¹] | kon [12] [M⁻¹ s⁻¹] | Positive Cells [13] [%] | Positive Cells [14] [%] | also measured
anti-HER3 antibody 1D6 (antibody, V domains shown, common light chain) VH: EVQLVQSGPGLVKPSETLSLTCTVSGGSISSNNYYWAWIRQPPGKGLEWIGSLYYTGRAYYKSSLKSRVTISVDTSNDQFSLRLTSVTAADTAIYYCARHDCGNTCLNWFDRWGQGTLVTVSS VL: not shown |  |  |  |  |  |  |  |  |  |  |  |  |  | Percentage of Positive Cells [1]: 62.9%; Percentage of Positive Cells [2]: 38.1%; Percentage of Positive Cells [3]: 68%; Percentage of Positive Cells [4]: 58.9%; Kd [5]: 81.4 nM; koff [5]: 0.00769 s⁻¹; kon [5]: 94500 M⁻¹ s⁻¹; Kd [6]: 77.4 nM; koff [6]: 0.0045 s⁻¹; kon [6]: 58100 M⁻¹ s⁻¹; Kd [7]: 14.4 nM; koff [7]: 0.00098 s⁻¹; kon [7]: 68000 M⁻¹ s⁻¹
anti-HER3/MET bispecific antibody 1C5-2F11 (bispecific antibody, V domains shown) VH 1: QVQLVESGGGVVQPGKSLRLSCAASGFTFSRSGMHWVRQAPGKGLEWVALISFDGSNKYYADSVKGRFTISRDNSKNTLNLQMNSLRAEDTAVYYCAKGGFGVVIYDAFDIWGHGTMVTVSS VH 2: EVQLVESGPGLVKPSETLSLTCTVSGGSISSNYWSWIRQPPGKGLEWIGYIYHSGSTNYNPSLKSRVTISVDTSKNQFSLKLSSVTAADTAVYFCARGPVSIFGVVKYIDLWGRGTLVTVSS VL: not shown | 54.9 | 56 | 29.3 | 0.000548 | 18700 | 44.2 | 0.00282 | 63800 | 103 | 0.000582 | 5630 | 99.7 | 68.4 | 

The remaining binders from weak to strong by Kd [10], led by results:

Positive Cells [8] [%] | Positive Cells [9] [%] | Kd [10] [nM] | koff [10] [s⁻¹] | kon [10] [M⁻¹ s⁻¹] | Kd [11] [nM] | koff [11] [s⁻¹] | kon [11] [M⁻¹ s⁻¹] | Kd [12] [nM] | koff [12] [s⁻¹] | kon [12] [M⁻¹ s⁻¹] | Positive Cells [13] [%] | Positive Cells [14] [%] | Binder | also measured
58.9 | 67.3 | 28.5 | 0.000593 | 20800 | 12.8 | 0.00427 | 333000 | 81.5 | 0.000655 | 8040 | 99.8 | 54.8 | anti-HER3/MET bispecific antibody 1C5-8H10 (bispecific antibody, V domains shown) VH 1: QVQLVESGGGVVQPGKSLRLSCAASGFTFSRSGMHWVRQAPGKGLEWVALISFDGSNKYYADSVKGRFTISRDNSKNTLNLQMNSLRAEDTAVYYCAKGGFGVVIYDAFDIWGHGTMVTVSS VH 2: QVQLQQWGAGLLKPSETLSLTCAVYGGSFSGYYWTWIRQPPGKGLEWIGESNHGGSTNFNPSLKSRVTISVDTSKNHFSLKLSPVTAADTAVYYCTRGGTIFGLKDAFDIWGQGTMVTVSS VL: not shown | 
64.4 | 67.9 | 16.9 | 0.00265 | 157000 | 10.9 | 0.00626 | 574000 | 38.7 | 0.00263 | 67800 | 99.8 | 57.2 | anti-HER3/MET bispecific antibody 1B2-8H10 (bispecific antibody, V domains shown) VH 1: QVQLVQSGPVLVKPTETLTLTCTVSTFSLSNARMGVSWIRQPPGKALEWLAHIFSNDDKSYSPSLKSRLTISKDTSKTQVVLTMTNMDPVDTATYYCSRMRYSGGPFDYWGQGSLVTVSS VH 2: QVQLQQWGAGLLKPSETLSLTCAVYGGSFSGYYWTWIRQPPGKGLEWIGESNHGGSTNFNPSLKSRVTISVDTSKNHFSLKLSPVTAADTAVYYCTRGGTIFGLKDAFDIWGQGTMVTVSS VL: not shown | 
